According to patent publication US11819542B2, “Immunotherapeutic method for treating lung cancer by administering a polypeptide comprising an epitope of hZP3” (Pantarhei Bioscience B.V., priority 2017, dated 2023):

Assays:
[1] = test system: hZP3-positive B16-HLA-A2 melanoma tumor; assay: Therapeutic immunization of HLA-A2 transgenic mice with ZP3-expressing tumor: tumor size; format: in vivo; details: female HLA-A2 transgenic mice, ZP3 expressing tumors, 2 s.c. immunizations (prime D7-10, boost D14-17) plus GM-CSF/CpG, tumor size increased with PBS
Description: (§1) FIG. 5: Schedule for administration of hZP3-positive B16-HLA-A2 melanoma tumor cells and an hZP3 peptide-mixture (comprising peptides 4, 5, 6, 8 and 9 in Table 5), or rhZP3^1-383 protein to HLA-A2 transgenic mice. On Day 0 (D0), a tumor injection with 10^6 cells/mouse was given subcutaneously (s.c.). Thereafter, the prime injection was administered 7 to 10 days (D7-10) and a boost injection on Day 14 to Day 17 (D14-17). Tumor size was monitored after treatment. At Day 30 to 35, mice were sacrificed to determine hZP3 specific CD8^+ responses (ELISpot).
An in vivo pre-clinical efficacy study has been conducted to assess the immune response and the anti-tumor response after immunization with rhZP3 polypeptide (aa 1-383 with his-tag) and 5 different ZP3 epitopes. The hZP3 epitopes were selected based on CD8^+ T cell responses observed during previously performed immunogenicity experiments with rhZP3 polypeptide (aa 1-383) and with pools of peptides comprising hZP3 epitopes as indicated (see Table 5) combined with different adjuvants (data not shown). The peptides were synthesized by Pepscan (the Netherlands) at a purity >96%. […]
(§2) On Day 0 (DO), a tumor injection with 10^6 cells/mouse (s.c.) was given. […] Tumor size was monitored after treatment. […]

[2] = test system: hZP3 specific CD8^+ responses; assay: ZP3 specific CD8+ T cell response after immunization (interferon-γ ELISpot); format: in vivo; details: HLA-A2 transgenic mice with ZP3 expressing tumors, after prime and boost immunization plus GM-CSF/CpG, Day 30 to 35
Description: as §1
FIG. 7: CD8^+ T cell responses as determined by interferon-γ (IFNg) ELISpot as measured against the peptides (all 5 or peptides 4, 5, 6, 8 or 9 individually) after immunization with the mixture of the 5 hZP3 peptides (peptide), or after immunization with the rhZP3^1-383 protein ZP3 (prot).
An in vivo pre-clinical efficacy study has been conducted to assess the immune response and the anti-tumor response after immunization with rhZP3 polypeptide (aa 1-383 with his-tag) and 5 different ZP3 epitopes. […]
as §2

[3] = listed as hZP3 polypeptide (aa 1-383)

B1: rhZP3 protein: rhZP3 polypeptide (aa 1-383 with his-tag), 100 μg s.c. plus GM-CSF/CpG as adjuvant (protein)
chain: QPLWLLQGGASHPETSVQPVLVECQEATLMVMVSKDLFGTGKLIRAADLTLGPEACEPLVSMDTEDVVRFEVGLHECGNSMQVTDDALVYSTFLLHDPRPVGNLSIVRTNRAEIPIECRYPRQGNVSSQAILPTWLPFRTTVFSEEKLTFSLRLMEENWNAEKRSPTFHLGDAAHLQAEIHTGSHVPLRLFVDHCVATPTPDQNASPYHTIVDFHGCLVDGLTDASSAFKVPRPGPDTLQFTVDVFHFANDSRNMIYITCHLKVTLAEQDPDELNKACSFSKPSNSWFPVEGSADICQCCNKGDCGTPSHSRRQPHVMSQWSRSASRN
Tumor size after treatment [1]: no growth of the tumor was observed
Tumor size after treatment [1, 3]: no increase in tumor size was observed
CD8^+ T cell response (IFNg ELISpot) ([2]; listed as ZP3 protein): a TCD8 response was observed
CD8^+ T cell response (IFNg ELISpot) [2, 3]: induced CD8^+ T cells
